The data set deals with T1, GST-Zc3h10 full length (UniProt Q8R205 1-435).
T1 sequence: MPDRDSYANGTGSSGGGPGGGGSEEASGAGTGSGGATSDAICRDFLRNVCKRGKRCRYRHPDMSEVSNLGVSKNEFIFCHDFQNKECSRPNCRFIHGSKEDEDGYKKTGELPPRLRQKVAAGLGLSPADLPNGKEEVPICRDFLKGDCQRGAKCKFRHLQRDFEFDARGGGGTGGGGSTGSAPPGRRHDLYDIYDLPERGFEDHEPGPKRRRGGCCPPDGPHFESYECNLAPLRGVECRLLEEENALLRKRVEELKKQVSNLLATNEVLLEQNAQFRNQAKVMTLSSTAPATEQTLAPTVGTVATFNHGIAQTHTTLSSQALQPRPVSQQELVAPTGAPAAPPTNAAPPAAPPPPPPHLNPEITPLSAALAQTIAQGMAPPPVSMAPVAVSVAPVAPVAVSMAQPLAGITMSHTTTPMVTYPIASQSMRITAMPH
Description: EMSA.

B1: -4.6 kb UCP1 probe (dsDNA)
DNA 1: TTTACCAAGTCCTTTCCACCGTGCAGGACGCACCATTCGGCAGCTTCCAGTTGTCTGGGAACTTCCAGTTGAAGGGATGA
DNA 2: TCATCCCTTCAACTGGAAGTTCCCAGACAACTGGAAGCTGCCGAATGGTGCGTCCTGCACGGTGGAAAGGACTTGGTAAA
For B1, the binding result is “binds”.

These data come from article PMC6911170.
